The assay deals with T1, human Anti-Mullerian Hormone type II receptor (AMHR-II) (human, UniProt Q16671 18-573).
T1 construct: whole, on cells; In the western blot it was the same protein in reduced SDS-PAGE lysates of xenografts of these cells; also called hAMHR-II
T1 sequence (looked up): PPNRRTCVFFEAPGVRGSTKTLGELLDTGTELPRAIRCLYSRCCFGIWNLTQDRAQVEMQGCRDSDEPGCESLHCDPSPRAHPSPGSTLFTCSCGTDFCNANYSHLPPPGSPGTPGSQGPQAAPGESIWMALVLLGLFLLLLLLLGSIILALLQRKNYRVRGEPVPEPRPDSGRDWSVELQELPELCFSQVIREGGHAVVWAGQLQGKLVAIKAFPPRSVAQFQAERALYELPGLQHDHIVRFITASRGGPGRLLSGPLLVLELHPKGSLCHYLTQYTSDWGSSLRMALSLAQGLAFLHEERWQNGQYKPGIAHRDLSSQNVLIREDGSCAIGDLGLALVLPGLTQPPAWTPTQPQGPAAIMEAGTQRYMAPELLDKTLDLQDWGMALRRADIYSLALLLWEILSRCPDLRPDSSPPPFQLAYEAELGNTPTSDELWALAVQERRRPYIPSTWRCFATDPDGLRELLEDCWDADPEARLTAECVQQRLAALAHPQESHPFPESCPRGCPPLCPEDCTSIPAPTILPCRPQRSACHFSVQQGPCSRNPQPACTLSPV
As to the kind of experiment: flow cytometry of hybridoma supernatants on AMHR-II positive cells.

Experimental findings from patent US20100135996A1 (INSTITUT NATIONAL DE LA SANTE ET DE LA RECHERCHE MEDICALE …, published 2010) are described below.

B1: anti-AMHR-II mAb 12G4 (antibody, mouse IgG1, V domains shown)
VH: QVQLQQSGPELVKPGASVRMSCKASGYTFTSYHIHWVKQRPGQGLEWIGWIYPGDDSTKYNEKFKGKTTLTADKSSSTAYMLLSSLTSEDSAIYFCTRGDRFAYWGQGTLVTVSA
VL: QIVLTQSPAIMSASLGEGITLTCSASSSVRYIHWYQQKSGTSPKLLIYSTSNLASGVPSRFSGSGSGTFHSLTISSVEAEDAADYYCLQWSSYPWTFGGGTKLEIK
notes: also called antibody of hybridoma CNCM I-3673
Regarding B1, the binding result is recorded as “binds”.
